In PMC10017356 (2023):
No end group written: not given here. *: point of attachment. Dansyl = CN(C)c1cccc2c(S(=O)(=O)*)cccc12

T1: Presenilin-1 peptide (Homo sapiens)
T1 chain: Dansyl-AFHQFYI


Target: T1, Presenilin-1 peptide
Test: stopped-flow kinetics (FRET)

Kd [µM]	Binder
5.5	X11 PDZ1 651-744 (protein) SENCKDVFIEKQKGEILGVVIVESGWGSILPTVIIANMMHGGPAEKSGKLNIGDQIMSINGTSLVGLPLSTCQSIIKGLKNQSRVKLNIVRCPP
7	X11 PDZ1-PDZ2-ΔC 651-827 (protein) SENCKDVFIEKQKGEILGVVIVESGWGSILPTVIIANMMHGGPAEKSGKLNIGDQIMSINGTSLVGLPLSTCQSIIKGLKNQSRVKLNIVRCPPVTTVLIRRPDLRYQLGFSVQNGIICSLMRGGIAERGGVRVGHRIIEINGQSVVATPHEKIVHILSNAVGEIHMKTMPAAMYRL
